{"source": "patent US20140134169A1", "about": "“Methods of Treating Ovarian Cancer with Dll4 Antagonists” (Regeneron Pharmaceuticals, Inc., priority 2012, published 2014)", "molecules": {"B1": {"name": "REGN421 (antibody, V domains shown)", "VH": "QVQLVESGGGVVQPGRSLRLSCAASGFTFSSYGMHWVRQAPGKGLEWVSFLWYDGTNKNYVESVKGRFTISRDNSKNMLYLEMNSLRAEDTAVYYCARDHDFRSGYEGWFDPWGQGTLVTVSS", "VL": "EIVLTQSPATLSLSPGERATLSCRASQSVSSYLAWYQQKPGQAPRLLIYDASNRATGIPARFSGSGSGTDFTLTISSLEPEDFAVYYCQHRSNWPPTFGGGTKVEIK"}}, "key": {"human Dll4": {"biological_target": "human Dll4 (human, UniProt Q9NR61 27-524, limits assumed)", "sequence (Q9NR61 27-524 limits assumed)": "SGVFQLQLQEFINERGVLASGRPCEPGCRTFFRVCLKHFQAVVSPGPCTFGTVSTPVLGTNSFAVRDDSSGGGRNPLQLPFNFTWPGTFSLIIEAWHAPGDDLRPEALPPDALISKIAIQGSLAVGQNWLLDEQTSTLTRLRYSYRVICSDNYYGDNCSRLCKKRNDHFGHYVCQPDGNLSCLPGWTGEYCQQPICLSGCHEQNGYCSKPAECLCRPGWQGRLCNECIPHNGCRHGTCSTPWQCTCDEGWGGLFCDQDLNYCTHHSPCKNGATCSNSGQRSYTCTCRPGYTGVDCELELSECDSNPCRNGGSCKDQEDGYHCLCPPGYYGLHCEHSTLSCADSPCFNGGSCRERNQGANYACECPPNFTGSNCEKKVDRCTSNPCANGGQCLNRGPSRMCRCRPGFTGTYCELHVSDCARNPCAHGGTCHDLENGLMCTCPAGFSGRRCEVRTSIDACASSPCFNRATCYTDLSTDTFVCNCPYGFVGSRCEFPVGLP", "assay": "cell-based or functional assay"}, "[1]": {"tested_on": "human A549 tumor cells (non-small cell lung cancer)", "assay": "Growth of human A549 tumors implanted in humanized Dll4 SCID mice", "type": "in vivo", "conditions": "REGN421 2 mg/kg sc (6 mg/kg total)", "procedure": "Tumor growth delay, TGD, was assessed as the difference in days between treated (T) versus control (C) tumors when each cohort reached a specified tumor size. The predetermined tumor size for this experiment was 600 mm^3.\nEach mouse was implanted subcutaneously (sc) with 5×10^6 human A549 tumor cells (non-small cell lung cancer or “NSCLC”). […] A total of 36 mice were divided into 6 groups (n=6 per cohort). The first group was treated sc with hFc at 2 mg/kg; the second group was treated sc with REGN421 at 2 mg/kg; the third and fourth groups were treated ip with cisplatin at 2.5 and 4.5 mg/kg, respectively; the fifth group was treated sc with REGN421 at 2 mg/kg and ip with cisplatin at 2.5 mg/kg; and the sixth group was treated sc with REGN421 at 2 mg/kg and ip with cisplatin at 4.5 mg/kg. REGN421 was administered every 3-4 days starting on day 29 and mice received three doses total. Cisplatin was administered every 24 hours starting on day 29 and mice received two doses total.\nTo assess the effects of REGN421 and cisplatin as single agents or in combination we measured tumor size (volume), beginning three days before the initial REGN421 treatment, on the day of each agent treatment (days 29, 30, 33, 36) and thereafter every 3-4 days until tumors reached ˜600 mm^3 in size."}, "[2]": {"tested_on": "human HCT116 tumor cells (CRC)", "assay": "Growth of human HCT116 tumors in humanized Dll4 SCID mice (5-FU study)", "type": "in vivo", "conditions": "REGN421 2 mg/kg sc (6 mg/kg total)", "procedure": "Each mouse was implanted subcutaneously (sc) with 5×10^6 human HCT116 tumor cells (CRC). […] The mice were then treated with hFc, REGN421, 5-FU or combination of REGN421 and 5-FU. A total of 30 mice were divided into 6 groups (n=5 per cohort). The first group was treated sc with hFc at 2 mg/kg; the second group was treated sc with REGN421 at 2 mg/kg; the third and fourth groups were treated ip with 5-FU at 15 and 25 mg/kg, respectively; the fifth group was treated sc with REGN421 at 2 mg/kg and ip with 5-FU at 15 mg/kg; and the sixth group was treated sc with REGN421 at 2 mg/kg and ip with 5-FU at 25 mg/kg. REGN421 was administered every 3-4 days starting on day 22 and mice received three doses total. 5-FU was administered every 3-4 days starting on day 22 and mice received three doses total.\nTo assess the effects of REGN421 and 5-FU as single agents or in combination, the changes in tumor size (volume) were measured, beginning three days before the initial REGN421 treatment, and then on the day of each agent treatment (days 22, 26, 29) and thereafter every 3-4 days until tumors reach ˜600 mm^3 in size. In vivo tumor size is calculated using the formula (length×width^2)/2 (FIG. 3 and Table 5)."}, "A2780 cells": {"tested_on": "A2780 cells", "assay": "A2780 ovarian xenograft (intraperitoneal) tumor growth inhibition", "type": "in vivo, human", "conditions": "for % TGI: REGN421 2.5 mg/kg 1x/week", "procedure": "Ovarian tumor xenograft cells were implanted into humanized Dll4 SCID mice or vendor SCID mice (i.e., SCID mice expressing native murine Dll4). After implantation, mice were treated with REGN421 (anti-human Dll4 antibody, binds to human Dll4), mDll4Ab1 (anti-murine Dll4 antibody, binds to murine Dll4), or a human Fc domain control protein. In one study, mice were treated with VEGF-Trap, mDll4Ab1 or VEGF-Trap plus mDll4Ab1. TOV-112D cells (5×10^6) were implanted subcutaneously into the right flank of humanized Dll4 (n=4) or vendor SCID mice (n=7). Treatment with REGN421 (2.5 mg/kg, 1×/week) or mDll4Ab1 (5 mg/kg, 1×/week) vs. hFc control was initiated one week after tumor cell implantation. Animals were treated for 2 to 3 weeks. A2780 cells (2×10^6) were implanted intraperitoneally into humanized Dll4 or vendor SCID mice (n=4-5). Treatment with REGN421 (2.5 mg/kg, 1×/week) or mDll4Ab1 (5 mg/kg, 1×/week) vs. hFc control was initiated one week after tumor cell implantation. For the A2780 combination study, simultaneous treatment with mDll4Ab1 (5 mg/kg, 1×/week) and VEGF-Trap (10 mg/kg, 2×/week) was initiated one week after tumor cell implantation. A VEGF-Trap single treatment arm was included in this study. Animals bearing A2780 tumors were treated for 4-5 weeks. SKOV-3 cells (5×10^6) in matrigel were implanted subcutaneously and tumor-bearing animals (n=10) were dosed with REGN421 (2.5 mg/kg) and mDll4Ab1 (5 mg/kg) once weekly. OVCAR-3 cells (1×10^7) were implanted subcutaneously into the right flank of vendor SCID mice (n=7). Treatment with mDll4Ab1 (5 mg/kg 1×/week) vs. hFc control was initiated 66 days after tumor cell implantation. Animals were treated for a total of 5 weeks. Tumor growth inhibition (TGI) was measured as detailed above."}}, "data": [{"molecule": "B1", "values": [{"measurement": "Hey-1 transcript Post-treatment vs. Pre-treatment ratio (patient 1, 0.25 mg/kg)", "setting": "human Dll4", "value": 0.52, "unit": "ratio"}, {"measurement": "Hey-1 transcript Post-treatment vs. Pre-treatment ratio (patient 2, 0.25 mg/kg)", "setting": "human Dll4", "value": 0.85, "unit": "ratio"}, {"measurement": "Hey-1 transcript Post-treatment vs. Pre-treatment ratio (patient 3, 0.25 mg/kg)", "setting": "human Dll4", "value": 0.77, "unit": "ratio"}, {"measurement": "Hey-1 transcript Post-treatment vs. Pre-treatment ratio (patient 4, 0.25 mg/kg)", "setting": "human Dll4", "value": 0.51, "unit": "ratio"}, {"measurement": "Hey-1 transcript Post-treatment vs. Pre-treatment ratio (patient 5, 0.25 mg/kg)", "setting": "human Dll4", "value": 0.61, "unit": "ratio"}, {"measurement": "Hey-1 transcript Post-treatment vs. Pre-treatment ratio (patient 6, 0.25 mg/kg)", "setting": "human Dll4", "value": 0.55, "unit": "ratio"}, {"measurement": "Hey-1 transcript Post-treatment vs. Pre-treatment ratio (patient 7, 0.25 mg/kg)", "setting": "human Dll4", "value": 0.75, "unit": "ratio"}, {"measurement": "Hey-1 transcript Post-treatment vs. Pre-treatment ratio (patient 8, 0.5 mg/kg)", "setting": "human Dll4", "value": 0.68, "unit": "ratio"}, {"measurement": "Hey-1 transcript Post-treatment vs. Pre-treatment ratio (patient 9, 0.5 mg/kg)", "setting": "human Dll4", "value": 0.82, "unit": "ratio"}, {"measurement": "TGD", "setting": "[1]", "value": 8, "unit": "days"}, {"measurement": "TGI (%) at Day 57", "setting": "[1]", "value": 54, "unit": "%"}, {"measurement": "TGD", "setting": "[2]", "value": 6, "unit": "days"}, {"measurement": "TGI(%) at Day 39", "setting": "[2]", "value": 36.3, "unit": "%"}, {"measurement": "% TGI", "setting": "A2780 cells; Humanized Dll4 SCID mice, 2.5 mg/kg", "value": 83, "unit": "%"}, {"measurement": "% TGI", "setting": "A2780 cells; SCID mice (native murine Dll4), mDll4Ab1 5 mg/kg 1x/week, VEGF-Trap 10 mg/kg 2x/week", "value": "−37", "unit": "%"}, {"measurement": "anti-tumor activity (in words)", "setting": "A2780 cells; vendor SCID mice", "value": "did not exhibit any appreciable anti-tumor activity"}]}]}
